Assay results taken from US20250361297A1 (ADAPTAM THERAPEUTICS S L, published 2025).

T1: recombinant human Siglec-15-his protein (Bonopusbio) (human, UniProt Q6ZMC9 20-263)
T1 construct: Bought (CW37-50 ug in the ELISA; the SPR paragraph prints CW70-50 ug); whole entry named; also called recombinant human Siglec-15 protein
T1 sequence: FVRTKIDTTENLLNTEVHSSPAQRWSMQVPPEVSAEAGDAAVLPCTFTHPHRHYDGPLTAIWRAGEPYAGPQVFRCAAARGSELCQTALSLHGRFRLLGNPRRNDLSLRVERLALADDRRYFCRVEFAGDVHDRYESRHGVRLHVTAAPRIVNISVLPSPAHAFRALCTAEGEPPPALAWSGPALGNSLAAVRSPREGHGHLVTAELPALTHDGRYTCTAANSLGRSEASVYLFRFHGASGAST

T2: human Siglec-15, full length, expressed on cells (human, UniProt Q6ZMC9 20-328)
T2 construct: also called hS15; MOLM-13 Siglec-15 expressing cells
T2 sequence: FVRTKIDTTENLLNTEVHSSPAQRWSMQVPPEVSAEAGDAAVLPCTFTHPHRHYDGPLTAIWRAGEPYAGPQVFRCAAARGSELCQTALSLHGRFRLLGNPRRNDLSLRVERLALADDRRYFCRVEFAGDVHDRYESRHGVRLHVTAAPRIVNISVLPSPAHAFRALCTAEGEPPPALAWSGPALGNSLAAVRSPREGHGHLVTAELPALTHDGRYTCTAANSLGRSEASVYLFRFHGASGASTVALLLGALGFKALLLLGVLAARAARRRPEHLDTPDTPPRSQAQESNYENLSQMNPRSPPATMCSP

T3: mouse Siglec-15, full length, expressed on HEK293T cells (mouse)
T3 construct: also called mS15; HEK293T cells expressing mouse Siglec-15
T3 chain: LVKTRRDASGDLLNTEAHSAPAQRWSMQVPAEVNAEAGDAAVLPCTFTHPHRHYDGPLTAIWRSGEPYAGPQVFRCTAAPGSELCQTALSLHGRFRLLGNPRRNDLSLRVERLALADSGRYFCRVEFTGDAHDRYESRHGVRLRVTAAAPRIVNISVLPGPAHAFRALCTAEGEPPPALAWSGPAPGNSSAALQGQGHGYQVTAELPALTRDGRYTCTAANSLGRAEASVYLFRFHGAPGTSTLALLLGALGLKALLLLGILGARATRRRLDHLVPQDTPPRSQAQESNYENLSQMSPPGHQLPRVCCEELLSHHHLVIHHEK

T4: truncated human Siglec-15 comprising only domain 2 (D2), expressed on HEK293T cells (human, UniProt Q6ZMC9 168-251, limits assumed)
T4 construct: also called domain 2-only human Siglec-15; Siglec-15 Domain 2 (D2) HEK293T cells
T4 sequence: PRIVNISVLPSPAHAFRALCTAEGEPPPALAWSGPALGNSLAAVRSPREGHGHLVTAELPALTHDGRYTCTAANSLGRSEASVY

T5: recombinant Siglec-15 (bispecific antibody affinity assay) (Homo sapiens (Human), UniProt Q6ZMC9 20-263, limits assumed)
T5 sequence: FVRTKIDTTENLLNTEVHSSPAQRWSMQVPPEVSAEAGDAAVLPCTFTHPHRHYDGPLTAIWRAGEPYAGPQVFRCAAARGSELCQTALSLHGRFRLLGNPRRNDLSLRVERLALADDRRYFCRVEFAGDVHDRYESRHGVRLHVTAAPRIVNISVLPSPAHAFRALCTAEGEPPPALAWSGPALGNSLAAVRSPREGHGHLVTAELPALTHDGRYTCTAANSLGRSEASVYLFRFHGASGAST


Tests used:
[1] = target: T1, recombinant human Siglec-15-his protein …; test: SPR (Biacore T200), antibody on CM5 chip, Siglec-15-his as analyte
Protocol: Binding affinity determination of anti-Siglec-15 monoclonal antibodies using BIACORE surface plasmon resonance: The purified anti-Siglec-15 monoclonal antibodies (mAbs) were characterized for binding affinity and binding kinetics by Biacore T200 system (GE healthcare, Pittsburgh, PA, USA). […] Un-reacted moieties on the biosensor surface were blocked with ethanolamine. Then, serially diluted recombinant human Siglec-15-his protein (Bonopusbio, CW70-50 ug), 2-fold serial dilution in HBS-EP buffer starting at 80 nM, were respectively flown onto the chip at a flow rate of 30 pL/min. The antigen-antibody association kinetics was followed for 2 minutes, and the dissociation kinetics was followed for 10 minutes. The association and dissociation curves were fit to a 1:1 Langmuir binding model using BIAcore evaluation software. The dissociation rate (kd) and association constant (ka) rate constants were obtained using Evaluation Software. The equilibrium dissociation constant (KD) was calculated from the ratio of kd over ka.

[2] = target: T2, human Siglec-15, full length, expressed …; test: flow cytometry, HEK293T cells expressing human Siglec-15, anti-human IgG-PE, MFI
Protocol: Flow cytometry was used to quantify the antibodies bound to the HEK293T cells.
Then, anti-Siglec-15 mAbs were added to the cell suspension at the desired concentration, starting at 10 μg/mL and performing 1/3 dilutions. Cells were incubated with the indicated antibodies for 30-60 minutes at 4° C. in the dark to prevent degradation of the fluorescent signal. After the primary antibody incubation, cells were washed twice with PBS or flow cytometry buffer by centrifuging at 300-500× g for 5 minutes and the pellet resuspended in fresh buffer. The following antibody was added: anti-human IgG-PE at a 1:500 dilution. Cells were incubated with the secondary antibody for 30 minutes at 4° C. in the dark. Finally, cells were washed twice with PBS or flow cytometry buffer to remove any excess secondary antibody and acquired in a flow cytometer.

[3] = target: T3, mouse Siglec-15, full length, expressed …; test: IgG1 titration, flow cytometry on HEK293T cells expressing mouse Siglec-15
[4] = target: T2, human Siglec-15, full length, expressed …; test: IgG1 titration, flow cytometry on MOLM-13 human Siglec-15 cells
Protocol: Complementary to the ELISA, flow cytometry assays provided insight into the binding behavior of the antibodies on the cell surface. Here, titration of the antibodies began at the same concentration of 10 μg/ml, using MOLM-13 human Siglec-15 and MOLM-13 wild-type cells as a negative control, with detection performed using an anti-human Fc secondary antibody (FIG. 8B).
In the flow cytometry assay, MOLM-13 cells expressing human Siglec-15 and MOLM-13 wild-type cells (negative control) were incubated with titrated antibodies starting at 10 μg/ml. After incubation, cells were washed and incubated with an anti-human Fc-specific secondary antibody conjugated with a fluorescent marker. Flow cytometric analysis was conducted, and fluorescence intensity was used to calculate EC50 values, providing a quantitative assessment of the antibodies' cell surface binding efficacy.

[5] = target: T4, truncated human Siglec-15 comprising …; test: flow cytometry, HEK293T cells expressing only domain 2 of human Siglec-15, fold change of Siglec15 gMFI relative to 2ry control
Protocol: Assessment of the binding of anti-Siglec-15 antibodies to HEK293T cells expressing full length human Siglec-15, or mutant human Siglec-15 (R143A) or the domain 2 of human Siglec-15 by Flow cytometry: Siglec-15+, Siglec-15+R143A, and Siglec-15 Domain 2 (D2) HEK293T cells were detached using tryple and washed once with PBS, resuspended in 1× flow cytometry buffer (PBS with 1% FBS) at approximately 1-2×10\hat{ }6 cells/mL. Then, anti-Siglec-15 mAbs were added to the cell suspension at the desired concentration, starting at 10 μg/mL and performing 1/3 dilutions. Cells were incubated with the indicated antibodies for 30-60 minutes at 4° C. in the dark to prevent degradation of the fluorescent signal. After the primary antibody incubation, cells were washed twice with PBS or flow cytometry buffer by centrifuging at 300-500× g for 5 minutes and the pellet resuspended in fresh buffer. The following antibody was added: anti-human IgG-PE at a 1:500 dilution. Cells were incubated with the secondary antibody for 30 minutes at 4° C. in the dark. Finally, cells were washed twice with PBS or flow cytometry buffer to remove any excess secondary antibody and acquired in a flow cytometer.

[6] = target: T5, recombinant Siglec-15 (bispecific …); test: antibody as ligand, human Siglec15 as analyte; legend paragraph 114 says BLI, methods paragraph 422 say Biacore SPR, table in RU
recombinant CD3 = recombinant CD3 (UniProt P07766 23-126; P09693 23-116); test: antibody as ligand, 'Human CD3 epsilon&CD3 gamma' as analyte; legend paragraph 116 says BLI, methods paragraph 422 say Biacore SPR, table in RU
Sequence of recombinant CD3 (P07766 23-126, form in doubt, chain 1 of 2): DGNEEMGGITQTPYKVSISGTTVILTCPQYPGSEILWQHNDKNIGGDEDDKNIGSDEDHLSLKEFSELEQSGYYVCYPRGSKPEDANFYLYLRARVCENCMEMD
Sequence of recombinant CD3 (P09693 23-116, form in doubt, chain 2 of 2): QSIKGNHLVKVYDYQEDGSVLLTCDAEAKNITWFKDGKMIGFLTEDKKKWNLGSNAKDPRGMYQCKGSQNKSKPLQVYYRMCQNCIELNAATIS

Binder | Kd [1] [nM] | koff [1] [s⁻¹] | kon [1] [M⁻¹ s⁻¹] | further results
S15B1-VH4 + VL1 (antibody, V domains shown, Humanized S15B1; also called humanized S15B1 VH4+VL1; huS15B1) VH: QVQLVQSGAEVKKPGASVKVSCKASGYAFSSSWMNWVKQAPGQGLEWIGRIYPGHGETNYNGKFKDRATMTADKSTSTVYMELSSLRSEDTAVYFCARVDNSDPYYFDYWGQGTTVTVSS VL: DIVLTQSPASLAVSPGQRATITCRASKSVSTSGYSYMHWYQQKPGQPPKLLIYLASNLESGVPARFSGSGSGTDFTLTINPVEAEDTANYYCQHGRELPFTFGGGTKLEIK | 0.0938 | 0.000385 | 4.1e+06 | 
S15B1-VH2 + VL2 (antibody, V domains shown, Humanized S15B1; also called humanized S15B1 VH2+VL2; huS15B1) VH: QVQLVQSGAEVKKPGASVKVSCKASGYAFSSSWMNWVRQAPGQGLEWIGRIYPGHGETNYNGKFKDRVTMTADTSTSTVYMELSSLRSEDTAVYFCARVDNSDPYYFDYWGQGTTVTVSS VL: DIVLTQSPASLAVSPGQRATITCRASKSVSTSGYSYMHWYQQKPGQPPKLLIYLASNLESGVPARFSGSGSGTDFTLTINPVEAEDTATYYCQHGRELPFTFGGGTKLEIK | 0.0946 | 0.000326 | 3.44e+06 | EC50 (read off the curve) [2]: ~1 nM
S15B1-VH4 + VL2 (antibody, V domains shown, Humanized S15B1; also called humanized S15B1 VH4+VL2; huS15B1) VH: QVQLVQSGAEVKKPGASVKVSCKASGYAFSSSWMNWVKQAPGQGLEWIGRIYPGHGETNYNGKFKDRATMTADKSTSTVYMELSSLRSEDTAVYFCARVDNSDPYYFDYWGQGTTVTVSS VL: DIVLTQSPASLAVSPGQRATITCRASKSVSTSGYSYMHWYQQKPGQPPKLLIYLASNLESGVPARFSGSGSGTDFTLTINPVEAEDTATYYCQHGRELPFTFGGGTKLEIK | 0.138 | 0.000234 | 1.69e+06 | 
S15B1-VH1 + VL2 (antibody, V domains shown, Humanized S15B1; also called humanized S15B1 VH1+VL2; huS15B1) VH: QVQLVQSGAEVKKPGASVKVSCKASGYAFSSSWMNWVRQAPGQGLEWIGRIYPGHGETNYNGKFKDRVTMTADTSTSTVYMELSSLRSEDTAVYFCARVDNSDPYYFDYWGQGTTVTVSS VL: DIVLTQSPASLAVSPGQRATITCRASKSVSTSGYSYMHWYQQKPGQPPKLLIYLASNLESGVPARFSGSGSGTDFTLTINPVEAEDTATYYCQHGRELPFTFGGGTKLEIK | 0.159 | 0.000563 | 3.54e+06 | 
S15B1-VH3 + VL1 (antibody, V domains shown, Humanized S15B1; also called humanized S15B1 VH3+VL1; huS15B1) VH: QVQLVQSGAEVKKPGASVKVSCKASGYAFSSSWMNWVKQAPGQGLEWIGRIYPGHGETNYNGKFKDRATMTADTSTSTVYMELSSLRSEDTAVYFCARVDNSDPYYFDYWGQGTTVTVSS VL: DIVLTQSPASLAVSPGQRATITCRASKSVSTSGYSYMHWYQQKPGQPPKLLIYLASNLESGVPARFSGSGSGTDFTLTINPVEAEDTANYYCQHGRELPFTFGGGTKLEIK | 0.069 | 0.000257 | 3.73e+06 | EC50 (read off the curve) [2]: ~1 nM
ZLA-1212-E09 (antibody, V domains shown, also called clone ZLA-1212-E09) VH: QVQLVQSGGGVVQPGRSLRLSCAASGFTFSSYGMHWVRQAPGKGLEWVAVISYDGSNKYYADSVKGRFTISRDNSKNTLYLQMNSLRAEDTAVYYCAKDDSGYYDSSGYDYWGQGTLVTVSS VL: QSVLTQPPSVSGAPGQRVTISCTGSSSNIGAGYDVHWYQQLPGTAPKLLIYGNSNRPSGVPDRFSGSKSGTSASLAITGLQAEDEADYYCQSYDSSLSGVVFGGGTKLTVL |  |  |  | EC50 [3]: 0.191 µg/mL; EC50 [4]: 0.178 µg/mL; binding result [5]: no binding
BsAb-2 (bispecific antibody, human IgG1, kappa, L234A L235A, 2 + 1 format; also called anti-Siglec-15/CD3 bispecific antibody, Format-2: KIH & scFv (2 + 1)) light 1: not shown heavy 1: QVQLQQSGPELVKPGASVKISCKASGYAFSSSWMNWVKQRPGKGLEWIGRIYPGHGETNYNGKFKDKATVTADKSSSTTYMQLSSLTSEDSAVYFCARVDNSDPYYFDYWGQGTTLTVSSASTKGPSVFPLAPSSKSTSGGTAALGCLVKDYFPEPVTVSWNSGALTSGVHTFPAVLQSSGLYSLSSVVTVPSSSLGTQTYICNVNHKPSNTKVDKKVEPKSCDKTHTCPPCPAPEAAGGPSVFLFPPKPKDTLMISRTPEVTCVVVDVSHEDPEVKFNWYVDGVEVHNAKTKPREEQYNSTYRVVSVLTVLHQDWLNGKEYKCKVSNKALPAPIEKTISKAKGQPREPQVCTLPPSRDELTKNQVSLSCAVKGFYPSDIAVEWESNGQPENNYKTTPPVLDSDGSFFLVSKLTVDKSRWQQGNVFSCSVMHEALHNHYTQKSLSLSPGK heavy 2: not shown light 2: not shown |  |  |  | Kd [6]: 0.17 nM; koff [6]: 0.000133 s⁻¹; kon [6]: 786000 M⁻¹ s⁻¹; Kd (recombinant CD3): 137 nM; koff (recombinant CD3): 0.00739 s⁻¹; kon (recombinant CD3): 53800 M⁻¹ s⁻¹
